To fix the notation:
B1: Hairpin Ribozyme (parent)
chain: GUCCUCUUUCACGUGCGCGUGAAAGAGAGAAGUGAACCAGAGAAACACACGUUGUGGUAUAUUACCUGGUA

Variants of B1 are the subject of the data set. Briefly: self-cleavage, relative activity (ratio to wild type); higher = more cleavage; co-transcriptional.
Take GUCCUCUUUCACGUGCGCGUGAAAGAGAGAAGUGAAUCAGAGAAACACACGUUGUGGUAUAUGACCUGGUA [C37U U63G]: the self-cleavage was 0.172.
On to GUCCUCUUUCACGUGCGCGUGAAAGAGAGAAGUGAACAAUAGAAACACACGUUGUGGUAUAUUACCUGGUA [C38A G40U], for which the self-cleavage came to 0.23.
Then GUCCUCUUUCACGUGCGCGUGAAAGAGAGAAGUGAACAACAGAAACACACGUUGUGGUAUAUUACCUGGUA [C38A G40C], with 0.103; and GUCCUCUUUCACGUGCGCGUGAAAGAGAGAAGUGAAUCAGAGAAACACACGUUGUGGUAUAUUACCCGGUA [C37U U67C], with 0.142.
Consider GUCCUCUUUCACGUGCGCGUGAAAGAGAGAAGUGAAUCAGAGAAACACACGUUGUGGUAUAUUACCGGGUA [C37U U67G], for which the self-cleavage amounted to 0.234.
Then GUCCUCUUUCACGUGCGCGUGAAAGAGAGAAGUGAACUAGAGAGACACACGUUGUGGUAUAUUACCUGGUA [C38U A44G], with 0.0449.
For GUCCUCUUUCACGUGCGCGUGAAAGAGAGAAGUGAACAAGAGAAACAAACGUUGUGGUAUAUUACCUGGUA [C38A C48A], the self-cleavage is 0.14.
Turning to GUCCUCUUUCACGUGCGCGUGAAAGAGAGAAGUGAACAAGAGAAACAGACGUUGUGGUAUAUUACCUGGUA [C38A C48G], the self-cleavage was 0.122.
For GUCCUCUUUCACGUGCGCGUGAAAGAGAGAAGUGAACAAGAGAAACACACGUUGUGGUAUAUUACCUGGUG [C38A A71G], the self-cleavage is 0.249.
Then GUCCUCUUUCACGUGCGCGUGAAAGAGAGAAGUGAACAAGAGAAACACACGUUGUGGUAUAUUACCUGCUA [C38A G69C], with 0.168; and GUCCUCUUUCACGUGCGCGUGAAAGAGAGAAGUGAACGAGAGAAACACACGUUAUGGUAUAUUACCUGGUA [C38G G54A], with 0.105.
To GUCCUCUUUCACGUGCGCGUGAAAGAGAGAAGUGAACGAGAUAAACACACGUUGUGGUAUAUUACCUGGUA [C38G G42U] belongs 0.172; to GUCCUCUUUCACGUGCGCGUGAAAGAGAGAAGUGAACAGGAGAAACACACGUUGUGGUAUAUUACCUGGUA [C38A A39G], 0.136; to GUCCUCUUUCACGUGCGCGUGAAAGAGAGAAGUGAACACGAGAAACACACGUUGUGGUAUAUUACCUGGUA [C38A A39C], 0.0755.
Then GUCCUCUUUCACGUGCGCGUGAAAGAGAGAAGUGAACGAGAGAAACACUCGUUGUGGUAUAUUACCUGGUA [C38G A49U], with 0.137; and GUCCUCUUUCACGUGCGCGUGAAAGAGAGAAGUGAACGAGAGGAACACACGUUGUGGUAUAUUACCUGGUA [C38G A43G], with 0.171; and GUCCUCUUUCACGUGCGCGUGAAAGAGAGAAGUGAACAAGAGAAACACACGUUGUGGAAUAUUACCUGGUA [C38A U58A], with 0.211.
Consider GUCCUCUUUCACGUGCGCGUGAAAGAGAGAAGUGAACGAGAGAAACACACGUUGUGGUACAUUACCUGGUA [C38G U60C], for which the self-cleavage came out at 0.233.
Consider GUCCUCUUUCACGUGCGCGUGAAAGAGAGAAGUGAACGAGAGAAACACACGUUGUGGUAUAUCACCUGGUA [C38G U63C], for which the self-cleavage came to 0.178.
On to GUCCUCUUUCACGUGCGCGUGAAAGAGAGAAGUGAACAAGAGAAACACAUGUUGUGGUAUAUUACCUGGUA [C38A C50U], for which the self-cleavage came to 0.15.
To GUCCUCUUUCACGUGCGCGUGAAAGAGAGAAGUGAACAAGAGAAACACAAGUUGUGGUAUAUUACCUGGUA [C38A C50A] belongs 0.0919; to GUCCUCUUUCACGUGCGCGUGAAAGAGAGAAGUGAACAAGAGAAACACCCGUUGUGGUAUAUUACCUGGUA [C38A A49C], 0.11; to GUCCUCUUUCACGUGCGCGUGAAAGAGAGAAGUGAACAAGAGAAACACGCGUUGUGGUAUAUUACCUGGUA [C38A A49G], 0.182.
Then GUCCUCUUUCACGUGCGCGUGAAAGAGAGAAGUGAACAAGGGAAACACACGUUGUGGUAUAUUACCUGGUA [C38A A41G], with 0.51; and GUCCUCUUUCACGUGCGCGUGAAAGAGAGAAGUGAACAAGAGAAACACACGUUGUGGUAUAUUACCUAGUA [C38A G68A], with 0.148.
For GUCCUCUUUCACGUGCGCGUGAAAGAGAGAAGUGAACAAGAGAACCACACGUUGUGGUAUAUUACCUGGUA [C38A A45C], the self-cleavage stood at 0.234.
As for GUCCUCUUUCACGUGCGCGUGAAAGAGAGAAGUGAACAAGAGAAACACACGUUGUGGUAUAUUCCCUGGUA [C38A A64C], the self-cleavage was 0.103.
Then GUCCUCUUUCACGUGCGCGUGAAAGAGAGAAGUGAACAAGAGAAACACACGUUGUGGUAUAUUUCCUGGUA [C38A A64U], with 0.179; and GUCCUCUUUCACGUGCGCGUGAAAGAGAGAAGUGAACAAGAGAAACACACGUUGUGGUAUAUUGCCUGGUA [C38A A64G], with 0.108.
As to GUCCUCUUUCACGUGCGCGUGAAAGAGAGAAGUGAACGAGAGAAACACACGUUGUGGUAUAUUAUCUGGUA [C38G C65U], the self-cleavage came to 0.0351.
To GUCCUCUUUCACGUGCGCGUGAAAGAGAGAAGUGAAUCAGAGAAACACACGUUGUGGUAUAUUACCUUGUA [C37U G68U] belongs 0.193; to GUCCUCUUUCACGUGCGCGUGAAAGAGAGAAGUGAACAAGAGAAACACACGUUGUGGUUUAUUACCUGGUA [C38A A59U], 0.134.
To GUCCUCUUUCACGUGCGCGUGAAAGAGAGAAGUGAACAAGAGAAACACACGUUGUGGUGUAUUACCUGGUA [C38A A59G] belongs 0.118; to GUCCUCUUUCACGUGCGCGUGAAAGAGAGAAGUGAAUCAGAGAAACACACGUCGUGGUAUAUUACCUGGUA [C37U U53C], 0.808.
To GUCCUCUUUCACGUGCGCGUGAAAGAGAGAAGUGAACAAGAGAAACACACGUUGUGGUAUAUUAACUGGUA [C38A C65A] belongs 0.198; to GUCCUCUUUCACGUGCGCGUGAAAGAGAGAAGUGAACGAGAGAAACACACGUUGUGGUAUAAUACCUGGUA [C38G U62A], 0.127; to GUCCUCUUUCACGUGCGCGUGAAAGAGAGAAGUGAACAAGAGAAACACACGUUGCGGUAUAUUACCUGGUA [C38A U55C], 0.116.
With GUCCUCUUUCACGUGCGCGUGAAAGAGAGAAGUGAACGAGAGAAACACACGUUGUGGUAUAUUACCUGGCA [C38G U70C], the self-cleavage stood at 0.157.

Values taken from the RNAGym collection of RNA variant scans (doi:10.7554/elife.80360).
